{
  "source": "patent US20110311550A1",
  "assay_in_all_cases": "ELISA, lectin-captured E1E2 lysate, Ab 1 ug/ml",
  "key": {"[1]": {"target": "E1E2 complex (H77) with E2 mutation A643G (HCV genotype 1a, isolate H77) (UniProt P27958)"}, "[2]": {"target": "E1E2 complex (H77) with E1 mutation P328A (HCV genotype 1a, isolate H77) (UniProt P27958)"}, "[3]": {"target": "E1E2 complex (H77) with E1 mutation R296A (HCV genotype 1a, isolate H77) (UniProt P27958)"}, "[4]": {"target": "E1E2 complex (H77) with E1 mutation H352A (HCV genotype 1a, isolate H77) (UniProt P27958)"}, "[5]": {"target": "E1E2 complex (H77) with E1 mutation A269G (HCV genotype 1a, isolate H77) (UniProt P27958)"}, "[6]": {"target": "E1E2 complex (H77) with E1 mutation D263A (HCV genotype 1a, isolate H77) (UniProt P27958)"}, "[7]": {"target": "E1E2 complex (H77) with E1 mutation D279A (HCV genotype 1a, isolate H77) (UniProt P27958)"}, "[8]": {"target": "E1E2 complex (H77) with E1 mutation T292A (HCV genotype 1a, isolate H77) (UniProt P27958)"}, "[9]": {"target": "E1E2 complex (H77) with E2 mutation N428A (HCV genotype 1a, isolate H77) (UniProt P27958)"}, "[10]": {"target": "E1E2 complex (H77) with E2 mutation H617A (HCV genotype 1a, isolate H77) (UniProt P27958)"}, "[11]": {"target": "E1E2 complex (H77) with E1 mutation N205A (HCV genotype 1a, isolate H77) (UniProt P27958)"}, "[12]": {"target": "E1E2 complex (H77) with E1 mutation P244A (HCV genotype 1a, isolate H77) (UniProt P27958)"}, "[13]": {"target": "E1E2 complex (H77) with E1 mutation V266A (HCV genotype 1a, isolate H77) (UniProt P27958)"}, "[14]": {"target": "E1E2 complex (H77) with E2 mutation A642G (HCV genotype 1a, isolate H77) (UniProt P27958)"}, "[15]": {"target": "E1E2 complex (H77) with E2 mutation E637A (HCV genotype 1a, isolate H77) (UniProt P27958)"}, "[16]": {"target": "E1E2 complex (H77) with E1 mutation G282A (HCV genotype 1a, isolate H77) (UniProt P27958)"}, "[17]": {"target": "E1E2 complex (H77) with E2 mutation N448A (HCV genotype 1a, isolate H77) (UniProt P27958)"}, "[18]": {"target": "E1E2 complex (H77) with E1 mutation A274G (HCV genotype 1a, isolate H77) (UniProt P27958)"}, "[19]": {"target": "E1E2 complex (H77) with E1 mutation Q193A (HCV genotype 1a, isolate H77) (UniProt P27958)"}},
  "data": [
    {"substance": "mouse anti-E1 MAb A4 (antibody)", "values": [
      {"measurement": "Binding relative to wt (%)", "setting": "[1]", "result": 131, "unit": "%"},
      {"measurement": "Binding relative to wt (%)", "setting": "[2]", "result": 123, "unit": "%"},
      {"measurement": "Binding relative to wt (%)", "setting": "[3]", "result": 108, "unit": "%"},
      {"measurement": "Binding relative to wt (%)", "setting": "[4]", "result": 85, "unit": "%"},
      {"measurement": "Binding relative to wt (%)", "setting": "[5]", "result": 47, "unit": "%"},
      {"measurement": "Binding relative to wt (%)", "setting": "[6]", "result": 96, "unit": "%"},
      {"measurement": "Binding relative to wt (%)", "setting": "[7]", "result": 28, "unit": "%"},
      {"measurement": "Binding relative to wt (%)", "setting": "[8]", "result": 90, "unit": "%"},
      {"measurement": "Binding relative to wt (%)", "setting": "[9]", "result": 127, "unit": "%"},
      {"measurement": "Binding relative to wt (%)", "setting": "[10]", "result": 140, "unit": "%"},
      {"measurement": "Binding relative to wt (%)", "setting": "[11]", "result": 96, "unit": "%"},
      {"measurement": "Binding relative to wt (%)", "setting": "[12]", "result": 85, "unit": "%"},
      {"measurement": "Binding relative to wt (%)", "setting": "[13]", "result": 96, "unit": "%"},
      {"measurement": "Binding relative to wt (%)", "setting": "[14]", "result": 137, "unit": "%"},
      {"measurement": "Binding relative to wt (%)", "setting": "[15]", "result": 122, "unit": "%"},
      {"measurement": "Binding relative to wt (%)", "setting": "[16]", "result": 50, "unit": "%"},
      {"measurement": "Binding relative to wt (%)", "setting": "[17]", "result": 97, "unit": "%"},
      {"measurement": "Binding relative to wt (%)", "setting": "[18]", "result": 53, "unit": "%"},
      {"measurement": "Binding relative to wt (%)", "setting": "[19]", "result": 81, "unit": "%"}
    ]}
  ]
}
